Patent US7495116B2, “Phospholipid derivative” (NOF Corporation, priority 2002, dated 2009)

Experiment: Determination of salt tolerant effect (clouding point, evaluation as surfactant)
Format: physicochemical
Details: 1 weight % solution in 5 weight % aqueous sodium sulfate
Procedure: As a result of the measurement, the clouding point was not detectable even when the temperature was raised up to 80° C.

With “monomethylpolyoxyethylenecarbamyl (Molecular Weight: 2000) distearoylphosphatidylethanolamine [Comparative Synthesis Example 1]” the Clouding point was 50.0 °C.
